Values quoted from earlier work, collected in paper PMC4454452.

Columns and labels:
[1] = target: Histone H3 peptide (H3K9me3) (Homo sapiens) (UniProt P68431)
[2] = target: Histone H3 peptide (H3K9me0) (Homo sapiens) (UniProt P68431)

Sequence of CHD4 PHD2 (Q14839 449-496): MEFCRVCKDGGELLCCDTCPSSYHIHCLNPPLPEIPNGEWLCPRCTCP

Kd [1]: 0.9 µM
Kd [2]: 19 µM
Substance: CHD4 PHD2 (from UniProt Q14839)
